How the values were obtained:
[1] = cynomolgus monkey, in vivo
Procedure: The pharmacokinetic profile of the constructs was analyzed in male cynomolgus monkeys of approximately 3 to 4 years old and was compared to the reference (SEQ ID NO:165). The constructs and the control were each injected in three monkeys at a dose of 2 mg/kg via an intravenous bolus injection. Blood samples were taken at predose, 5 min, 20 min, 1 h, 2 h, 4 h, 8 h (test day 1) after administration and at test days 2, 3, 5, 7, 9, 12, 15, 18, 21, 24, 27, 30, 33. In order to obtain at least 1 mL plasma per animal per sampling time, a sufficient volume of whole blood was withdrawn per sampling time. Plasma was collected after whole blood centrifugation for 30 minutes at 2200 g at room temperature (RT). The plasma samples were stored at −80° C. until analysis.
For bioanalytical determination of constructs and control article in monkey plasma, plasma samples were tested for levels of constructs and the control using ELISA based PK assays. The detection of control and constructs in the ELISA assays is based on the binding of these Nanobodies with vWF and the assay set-ups are as such that total vWF-binding Nanobody is detected.
For the reference (SEQ ID NO:165) and the construct of SEQ ID NO:167, 96-well microtiter plates (Maxisorp, Nunc, Wiesbaden, Germany) were coated overnight at 4° C. with neutravidin (Pierce) in 10:10 buffer at 3 μg/ml. Wells were aspirated and blocked for 1 hour at RT with PBS/1% casein. After this blocking step, wells were washed with PBS/0.05% Tween20. A biotinylated bivalent Nanobody against the constructs was added to the neutravidin coated plate at 2 μg/ml in PBS/0.1% casein and incubated for 1 hour at RT. After the incubation step of this capture tool, wells were washed 3 times with PBS/0.05% Tween20.
Preparations of the standards, QC samples and dilutions of the test samples were performed in a non-coated (polypropylene) plate. For the standard curve and QC-samples, solutions at the required concentrations were prepared in PBS/0.1% casein and spiked into 100% monkey plasma. To prepare standards and QC samples, a 1/100 dilution of the pure monkey plasma dilutions was made in IgM-Reducing Agent (Immunochemistry Technologies, Bloomington, USA) supplemented with 2.5% pooled human plasma (referred to as sample diluent). For the test samples, dilution factors for the test samples were estimated, and ranged between 1/100 to 1/9000 for the reference of SEQ ID NO:165 tests and between 1/100 and 12000 for the construct of SEQ ID NO: 167. Samples were diluted 1/100 in sample diluent in a first step, and if needed, further dilution was done in sample diluent supplemented with 1% cynomolgus plasma.
Standards, QC samples and diluted test samples were transferred onto the coated plate and incubated for 1 hour at RT. Afterwards the plates were washed followed by a complexation step with purified vWF (ZLB Behring). vWF diluted to 2.5 μg/ml for the assay for the reference of SEQ ID NO:165 and to 3 μg/ml for the assay for the construct of SEQ ID NO: 167 in PBS/0.1% casein was incubated on the plates for 30 minutes at RT. Plates were washed and Nanobody/vWF complexes bound to the capture tool detected with Rabbit anti-human vWF Ab (Dako, Denmark), diluted 1/2000 in PBS/0.1% casein and incubated for 30 minutes at RT. After washing, a 1/15000 dilution in PBS/0.1% casein of Horse-Radish-Peroxidase labelled goat anti-rabbit Ab (Dako, Denmark) was added to the plate and incubated for 30 minutes at RT. The enzyme coupled to the Ab catalyzes a chemical reaction with the substrate sTMB (3,3′,5,5′-tetramethylbenzidine, SDT reagents, Brussels, Belgium), resulting in a colorimetric change. After stopping this reaction after 10 minutes using HC1 (1N), the intensity of the colour was measured using a spectrophotometer at 450 nm. […]

[2] = Chemical stability on storage at 37° C., RP-HPLC; assay type: physicochemical; settings: 4 weeks incubation at 37° C. in D-PBS
Procedure: To evaluate the chemical stability of vWF0055, the Nanobody® vWF0055 was stored at 37° C. After 1, 2 and 4 weeks a sample was taken and analyzed for chemical or proteolytic modifications via RP-HPLC (Zorbax 300SB-C3, 4.6×150 mm (5 μm); trifluoroacetic acid/acetonitrile).

[3] = test system: VWF; experiment: Pharmacodynamic profile: ristocetin cofactor activity assay (% RICO) after i.v. administration; assay type: in vivo, Cynomolgus monkey
Procedure: For the constructs used in Example 14, pharmacodynamic characteristics upon compound administration were measured by means of a ristocetin cofactor activity assay (Biopool). The ristocetin cofactor activity is a functional assay for VWF, measuring the capacity of VWF to interact with the platelet receptor glycoprotein Ib using ristocetin as a modulator.
For pharmacodynamic data analysis, descriptive statistics (mean and SD) were calculated per dose group and per sampling time point using Microsoft Excel 2007. Response parameters and associated statistics for the overall time course were calculated by noncompartmental analysis of the response-time data using WinNonlin Pro 5.1 (Pharsight Corporation, USA; 2006). The non-compartmental analysis was based on a model for pharmacodynamic data (Model 220). The threshold value was set at 20% based on extensive historical PK/PD data on the vWF-0001 compound. Preclinical studies have shown that a complete inhibition of the pharmacodynamic marker are correlated with full antithrombotic efficacy. The following main pharmacodynamic parameters were determined: time below the threshold (Time below T), area under the threshold (AUC below T), time at which the % RICO first drops below the threshold (Tonset), and time at which the % RICO first returns back above the threshold (Toffset).

[4] = test system: platelet adhesion to fibrillar collagen; experiment: Perfusion experiments: platelet adhesion to collagen at arterial shear rate; assay type: cell-based, human
Procedure: The perfusion experiments were performed with a single-pass perfusion chamber under non-pulsatile flow conditions using a modified small perfusion chamber with a slit height of 0.1 mm and a slit width of 2 mm. […] Citrated human blood was preincubated at 37° C. for 5 min with or without addition of test compound, and then perfused through the chamber for 5 min at a wall shear rate of 1600 s^−1 using an infusion/withdrawal pump (pump 22, model 2400-004, Harvard Apparatus, Holliston, Mass.). After the perfusion run, the coverslips were rinsed in Hepes buffered saline (10 mM Hepes, 150 mM NaCl, pH 7.4) and platelets were fixed with 5% glutaraldehyde and stained with May-Grünwald and Giemsa. Platelet deposition of the coverslip was evaluated as platelet surface coverage of 10 randomly chosen pictures using light microscopy (Olympus BX61 microscope using Analysis Five digital imaging solutions analysis software).

[5] = target: HSA (Homo sapiens, UniProt P02768); experiment: Biacore analysis of pH dependency of binding
Procedure: (§1) The pH dependent binding of vWF0055 on HSA and cynoSA was investigated by surface plasmon resonance using a Biacore 3000 instrument by assessing the affinity at three different pH's. In brief, HSA and cynoSA were amine-coupled to a separate CM5 sensor chip at a density of respectively 1800RU and 1900RU. Diluted samples, ranging in concentration between 25 nM to 1 μM vW0055 were prepared in three buffers. The three buffers used contained 50 mM phosphate, 150 mM NaCl and 0.005% surfactant P and were adjusted to either pH5, pH7 or pH8. Samples were injected at a flow-rate of 45 μL/min, association and dissociation were monitored during 120 sec and 300 sec. Binding curves were subsequently used to calculate the KD, association- and dissociation-rate constants with the BiaEvaluation software.

[6] = target: cynoSA (Macaca fascicularis, UniProt A2V9Z4); experiment: Biacore analysis of pH dependency of binding; set-up: species or system cynomolgus monkey
cynoSA, sequence (A2V9Z4 25-608): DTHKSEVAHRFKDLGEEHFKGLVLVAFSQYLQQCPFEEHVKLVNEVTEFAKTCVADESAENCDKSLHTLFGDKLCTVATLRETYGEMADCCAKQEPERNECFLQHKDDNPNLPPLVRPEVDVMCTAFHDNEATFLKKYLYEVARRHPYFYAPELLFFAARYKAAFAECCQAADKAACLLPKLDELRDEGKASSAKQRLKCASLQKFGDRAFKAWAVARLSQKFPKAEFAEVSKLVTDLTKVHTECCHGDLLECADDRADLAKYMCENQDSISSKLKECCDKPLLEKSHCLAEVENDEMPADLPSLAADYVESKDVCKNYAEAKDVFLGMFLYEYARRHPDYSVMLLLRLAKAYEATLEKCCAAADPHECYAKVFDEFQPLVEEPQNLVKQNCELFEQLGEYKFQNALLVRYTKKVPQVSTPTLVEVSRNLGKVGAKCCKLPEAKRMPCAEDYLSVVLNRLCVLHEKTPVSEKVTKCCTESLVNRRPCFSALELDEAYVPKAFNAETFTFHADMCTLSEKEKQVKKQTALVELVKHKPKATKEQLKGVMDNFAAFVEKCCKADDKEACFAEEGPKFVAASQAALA
Procedure: as §1

[7] = threshold 20% RICO, i.v. bolus 2 mg/kg, male Cynomolgus monkey, mean n = 3

decrease of affinity at pH5 ([5]; pH5): about 10 fold
pH at which the highest affinity was observed ([5]; pH5, pH7 or pH8 tested): 7
decrease of affinity at pH5 ([6]; pH5): about 10 fold
pH at which the highest affinity was observed ([6]; pH5, pH7 or pH8 tested): 7
B1: 12A2_sv1-AAA-12A2_sv1-9GS-59C2 (protein)
chain: DVQLVESGGGLVQPGGSLRLSCAASGRTFSYNPMGWFRQAPGKGRELVAAISRTGGSTYYPESVEGRFTISRDNAKRTVYLQMNSLRAEDTAVYYCAAAGVRAEQGRVRTLPSEYTFWGQGTQVTVSSAAAEVQLVESGGGLVQPGGSLRLSCAASGRTFSYNPMGWFRQAPGKGRELVAAISRTGGSTYYPESVEGRFTISRDNAKRTVYLQMNSLRAEDTAVYYCAAAGVRAEQGRVRTLPSEYTFWGQGTQVTVSSGGGGSGGGSRDWDFDVFGGGTPVGG
Vdss lower relative to vWF0001 [1]: 11 fold
dominant half-life (t½ dominant) increase relative to vWF0001 [1]: 85 fold
mean CL decrease compared to the control [1]: 26 fold
AUCinf ([1]; iv, 2 mg/kg): 1590 µg·h/mL
C0 ([1]; iv, 2 mg/kg): 46500 ng/mL
chemical modifications or proteolytic degradation [2]: neither chemical modifications nor proteolytic degradation occurred
Tonset values ([3]; estimated, i.v. application): ~5 min
mean AUC under the threshold increase relative to vWF0001 ([3]; i.v. bolus): 118 fold
time below the threshold increase relative to vWF0001 ([3]; i.v. bolus): 105 fold
AUC below T [3, 7]: 781 % RICO * h
Time below T [3, 7]: 127 h
Tonset ([3]; time % RICO first drops below threshold, i.v. bolus 2 mg/kg): 0.074 h
Toffset ([3]; time % RICO first returns above threshold, i.v. bolus 2 mg/kg): 127 h
Effective concentration compared to VWF0001 ([4]; FIG. 12): similar
inhibition of platelet adhesion to fibrillar collagen at arterial shear rate ([4]; citrated human blood, wall shear rate 1600 s^−1, FIG. 12): dose-dependently and completely inhibit
